B1: POU domain, class 6, transcription factor 2, residues 609 to 663; numbered along this chain, P78424 (parent)
chain: KRRTSFTPQALEILNAHFEKNTHPSGQEMTEIAEKLNYDREVVRVWFCNKRQALK
B2: Activity-dependent neuroprotector homeobox protein, residues 770 to 810; numbered along this chain, Q9H2P0 (parent)
chain: FLTKYFNKQPYPTRREIEKLAASLWLWKSDIASHFSNKRKK

Variants of: B1
Test: abundance fitness (aPCA) (normalised: wild type 0, dead -1); higher = more abundant; growth selection in yeast, the domain comes from the species named
Conditions: Homo sapiens

Abundance fitness of substitutions, site by site:
A53: I -0.11; V -0.2; T -0.157; H 0.012; F -0.267; S 0.005; R -0.194; M 0.034; W -0.089; E -0.105; P -0.392; Q 0.042; K -0.167; C -0.215; N 0.046; Y -0.018; L -0.086
R51: M -0.377; Q -0.031; N -0.074; L 0.011; P -0.636; F -0.331; C -0.316; A -0.094; E -0.337; V -0.165; D -0.457; H -0.385; S -0.174; W -0.295; K -0.026; Y -0.097; I -0.226; T -0.243
F47: R -0.949; T -0.763; N -1.08; S -0.81; H -0.913; K -0.722; D -0.762; E -0.89; L -0.782; A -0.744; I -0.782; M -0.686; G -0.853; P -0.775; C -0.843; Q -0.807; W -0.168; Y -0.162
C48: R -0.057; F -0.5; N 0.277; Q 0.279; W 0.02; G -0.008; V 0.124; Y -0.062; T -0.197; E 0.259; M 0.18; D -0.144; S 0.039; I -0.475
N49: F -0.292; I -0.226; Y -0.218; E 0.177; H -0.18; L -0.292; S -0.061; A -0.038; D -0.152; K 0.008; G -0.13; V -0.138; M -0.177; W -0.339; Q 0.03; P -0.683; R -0.157
K55: R 0.001; N -0.186; G -0.226; V -0.304
Q52: L -0.005; T -0.059; C -0.126; H 0.022; I 0.045; D -0.119; G -0.223; P -0.218; A -0.006; M -0.188; K 0.018; Y -0.339; N 0.014; V -0.161; E 0.117; W -0.244; S -0.175; F -0.171
K50: L -0.834; H -0.444; W -0.836; P -1.19; F -1.15; C -0.662; R 0.022; M -0.184; V -0.638; A -0.125; Y -1.01; D -0.946; I -0.916; G -0.491; S -0.21; E -0.156; N -0.222; T -0.201
W46: N -0.891; P -0.801; D -0.447; Q -0.827; V -1.02; Y 0.032; E -0.91; I -0.828; F -0.405; R -0.753; H -0.53; K -0.983; G -0.707
L54: S -0.065; V -0.101; F -0.199; M -0.106; E -0.133; T -0.217; K -0.159; Q -0.175; A -0.002; I -0.242; P 0.042; Y -0.417; R -0.103; C -0.258; D -0.182; H -0.159

Variants of: B2
Test: as above
Conditions: Homo sapiens

Abundance fitness, by site and new letter:
P10: I -0.114; H -0.153; L -0.15; K -0.139; A -0.095
F6: M -0.209; K -0.098; G -0.442; E -0.821
E18: C -0.232; A -0.025; W -0.356; D -0.109
P12: A 0.048; T -0.142
D30: R -0.026; G -0.025; V -0.317; Q 0
K19: D -0.099; P -0.864; L -0.63; W -0.79; N -0.144; S -0.413
S36: I -0.091; K 0.051; F -0.055
L2: F 0.098; Q -0.595; N -0.555; E -1.06; W 0.044; R -0.789; H -0.738
W25: T 0.141; D -0.159; C -0.14; N -0.021; H 0.071
E16: Y -0.096; P 0.159; R 0.054; D 0.016; H -0.133; L -0.194; M -0.04
H34: E -0.275; R -0.085; P -0.01; D -0.388; Q -0.032; C 0.069
N37: I 0.028; A -0.093; R -0.081
A22: D -0.25; N -0.015; L -0.396; M -0.084; V -0.344; K 0.075
L20: T -0.106; A -0.038; H -0.269
L26: I -0.134; D -0.004; G 0.101
S29: I 0.031; P 0.229; E -0.294; L -0.145
R14: Q -0.265
A32: T -0.086; W 0.113; Q -0.169; P -0.383
K8: M -0.639; T -0.951; G -0.217; N -0.362; S -0.995; A -1.12; W -0.942
T13: R -0.048; Q -0.098; E -0.369; K -0.046; G 0.16
R39: M 0.134; V -0.185
K38: I -0.182; W -0.242; S -0.183; R -0.115; T -0.229
N7: A -0.145; T -0.215; R -0.174; F -1.24
K4: Q -0.646; V -0.815; L -1; P -0.904
K41: I -0.277; V -0.309; E -0.092; N -0.15; T -0.128; D -0.015; A -0.319; R -0.092
T3: I -0.475; M -0.395; F -0.613
Y11: D -0.086; R -0.035; I 0.05; A 0.137; T 0.135; Q 0.181; F -0.182; M 0.058
I31: M 0.056; T -0.061; L -0.043; D 0.022; F -0.197; Q -0.116
Q9: V -0.269; N -0.007; F -0.233; P -0.698; D -0.169
R15: L -0.211; Q -0.162; H -0.384; E -0.02; K 0.093; I -0.252
F35: M 0.004; A -0.119; I -0.208; V -0.063
S33: I -0.149; Q -0.033; N -0.284; F -0.244; C -0.058
K28: V 0.508; Q -0.184; E -0.463; H -0.421; S 0.028; D -0.514; I 0.445
F1: C -0.854
A21: Q -0.328; H -0.413; L -0.082
I17: G -0.158; L -0.019; N -0.687
W27: Y -0.227; T -0.152; V -0.061; R 0.025; C -0.188; Q -0.492
L24: G -0.228; W -0.121; P -0.289; A -0.026; I 0.051
K40: D -0.253; F -0.098
S23: G -0.182; T -0.075; L -0.211; V -0.101; F -0.614
